Measurements reported in article PMC4318572 (Journal of biomolecular screening, 2014).

B1: GST–Fyn SH3–strep (domain or fragment)
chain: not shown

Columns and labels:
Test in all cases: AlphaScreen or HTRF
[1] = target: 3R0N Tau (human, UniProt P10636-2 1-352)
[2] = target: Tau with P232 mutated to alanine (human, UniProt P10636-8 1-441, P232 (alanine scan))
[3] = target: 3R1N Tau (human, UniProt P10636-4 1-381)
[4] = target: 4R1N Tau (human, UniProt P10636-7 1-412)
[5] = target: P203A Tau (human, UniProt P10636-8 1-441, P203A)
[6] = target: P236A Tau (human, UniProt P10636-8 1-441, P236A)
[7] = target: P233A Tau (human, UniProt P10636-8 1-441, P233A)
[8] = target: 3R2N Tau (human, UniProt P10636-5 1-410)
[9] = target: 4R0N Tau (human, UniProt P10636-6 1-383)
[10] = target: B1

Measured: binding result

B1
not listed: [10]
binds: all other assays above

YGRKKRRQRRRRSRTPSLPTPPTREPKK [Tat-tagged peptide spanning the 5th and 6th PXXP motifs in Tau]
binds: [10]
